# B1: HvNar2.3: barley associate protein Nar2 of two-component HATS, SEQ ID NO: 6 (protein)
# chain: MARQGMVTALLLLVLAAGCCASAGAVAYLSKLPVTLDVTASPTPGQVLHAGEDVITVTWALNASQPAGKDADYKNVKVSLCYAPVSQKEREWRKTHDDLKKDKTCQFKITQQAYPGAGKVEYRVALDIPTATYYVRAYALDASGTQVAYGQTAPTAAFNVVSITGVTTSIKVAAGVFSAFSVASLAFFFFIEKRKKNN
# modifications: Hordeum vulgare
# B2: AtNrt1.4: higher plant nitrate transporter protein, GenBank accession AC003105 (protein, UniProt Q9SZY4 1-577, looked up)
# Protein NRT1/ PTR FAMILY 6.2: MESKGSWTVADAVDYKGRPADKSKTGGWITAALILGIEVVERLSTMGIAVNLVTYLMETMHLPSSTSANIVTDFMGTSFLLCLLGGFLADSFLGRFKTIGIFSTIQALGTGALAVATKLPELRPPTCHHGEACIPATAFQMTILYVSLYLIALGTGGLKSSISGFGSDQFDDKDPKEKAHMAFFFNRFFFFISMGTLLAVTVLVYMQDEVGRSWAYGICTVSMAIAIVIFLCGTKRYRYKKSQGSPVVQIFQVIAAAFRKRKMELPQSIVYLYEDNPEGIRIEHTDQFHLLDKAAIVAEGDFEQTLDGVAIPNPWKLSSVTKVEEVKMMVRLLPIWATTIIFWTTYAQMITFSVEQASTMRRNIGSFKIPAGSLTVFFVAAILITLAVYDRAIMPFWKKWKGKPGFSSLQRIAIGLVLSTAGMAAAALVEQKRLSVAKSSSQKTLPISVFLLVPQFFLVGAGEAFIYTGQLDFFITQSPKGMKTMSTGLFLTTLSLGFFVSSFLVSIVKRVTSTSTDVGWLADNINHGRLDYFYWLLVILSGINFVVYIICALWFKPTKGKDSVEKENGKGFSVEDC
# B3: AtNrt1.3: higher plant nitrate transporter protein, GenBank accession AB019232 (protein, UniProt Q9LVE0 1-590, looked up)
# Protein NRT1/ PTR FAMILY 6.4: MVHVSSSHGAKDGSEEAYDYRGNPPDKSKTGGWLGAGLILGSELSERICVMGISMNLVTYLVGDLHISSAKSATIVTNFMGTLNLLGLLGGFLADAKLGRYKMVAISASVTALGVLLLTVATTISSMRPPICDDFRRLHHQCIEANGHQLALLYVALYTIALGGGGIKSNVSGFGSDQFDTSDPKEEKQMIFFFNRFYFSISVGSLFAVIALVYVQDNVGRGWGYGISAATMVVAAIVLLCGTKRYRFKKPKGSPFTTIWRVGFLAWKKRKESYPAHPSLLNGYDNTTVPHTEMLKCLDKAAISKNESSPSSKDFEEKDPWIVSTVTQVEEVKLVMKLVPIWATNILFWTIYSQMTTFTVEQATFMDRKLGSFTVPAGSYSAFLILTILLFTSLNERVFVPLTRRLTKKPQGITSLQRIGVGLVFSMAAMAVAAVIENARREAAVNNDKKISAFWLVPQYFLVGAGEAFAYVGQLEFFIREAPERMKSMSTGLFLSTISMGFFVSSLLVSLVDRVTDKSWLRSNLNKARLNYFYWLLVVLGALNFLIFIVFAMKHQYKADVITVVVTDDDSVEKEVTKKESSEFELKDIP
# B4: AtNrt1.1: higher plant nitrate transporter protein, GenBank accession L10357 (protein, UniProt Q05085 1-590, looked up)
# Protein NRT1/ PTR FAMILY 6.3: MSLPETKSDDILLDAWDFQGRPADRSKTGGWASAAMILCIEAVERLTTLGIGVNLVTYLTGTMHLGNATAANTVTNFLGTSFMLCLLGGFIADTFLGRYLTIAIFAAIQATGVSILTLSTIIPGLRPPRCNPTTSSHCEQASGIQLTVLYLALYLTALGTGGVKASVSGFGSDQFDETEPKERSKMTYFFNRFFFCINVGSLLAVTVLVYVQDDVGRKWGYGICAFAIVLALSVFLAGTNRYRFKKLIGSPMTQVAAVIVAAWRNRKLELPADPSYLYDVDDIIAAEGSMKGKQKLPHTEQFRSLDKAAIRDQEAGVTSNVFNKWTLSTLTDVEEVKQIVRMLPIWATCILFWTVHAQLTTLSVAQSETLDRSIGSFEIPPASMAVFYVGGLLLTTAVYDRVAIRLCKKLFNYPHGLRPLQRIGLGLFFGSMAMAVAALVELKRLRTAHAHGPTVKTLPLGFYLLIPQYLIVGIGEALIYTGQLDFFLRECPKGMKGMSTGLLLSTLALGFFFSSVLVTIVEKFTGKAHPWIADDLNKGRLYNFYWLVAVLVALNFLIFLVFSKWYVYKEKRLAEVGIELDDEPSIPMGH
# What was measured:
# [1] = tested on: P. pastoris GS115-YNR1 transformants; assay: Nitrate transporter (NT) activity of barley two-component HATS transformants, nitrite assay; format: cell-based, Pichia pastoris; conditions: 1 mM NaNO3, 2 hours at 30° C., pH 6.5; compared to negative controls GS115 wt and GS115-YNR1
# Source text: To test if P. pastoris was capable to identify a plant two-component HATS system, the following constructs containing HvNrt2.1 (SEQ ID NO: 5) or HvNar2.3 (SEQ ID NO: 6) were made and transformed into GS115-YNR1 line at AOX locus individually: pPIC3.5-pGAP-HvNrt2.1 or pPIC3.5-pGAP-HvNar2.3. To obtain transformants carrying HvNar2.3 and HvNrt2.1, GS115 wt was transformed with pPIC3.5-pGAPHvNar2.3-pGAPYNR at His 4 locus, then re-transformed with pPIC3.5-pGAP-HvNrt2.1 at AOX locus after the line was confirmed carrying both YNR1 and HvNar2.3 genes by PCR. The transformants were cultured in rich media (YPD) at 30° C. for overnight. Yeast cells were collected and washed with water twice then re-suspended in […], pH 6.5 and 1% glucose containing 1 mM NaNO3. After 2 hours incubation at 30° C., the supernatant was collected for nitrite assay with 1% Sulfanilamide, 0.01% N-(1-Naphthyl)ethylene-diamine dihydrochloride and 15% (v/v) H3PO4.
# [2] = tested on: Pichia angusta Nrt transformants; assay: Functional pre-screening chlorate assay (growth on minimal plate); format: cell-based, Pichia pastoris; conditions: 0.5 mM chlorate, overnight at 30° C.
# Procedure: […] These were incubated overnight at 30° C. The amount of growth was observed the next morning. […] This assay was repeated with various Nrt genes.
# [3] = tested on: Arabidopsis Nrt1.1 transformants; assay: as above; format: cell-based, Pichia pastoris; conditions: very small concentrations of chlorate, relative to Pichia angusta Nrt transformants
# Procedure: 5 μL of overnight YPD transformant cultures were spotted onto a minimal plate containing yeast nitrogen base, 10 mM proline, 2% glucose and 3-20 mM chlorate. These were incubated overnight at 30° C. The amount of growth was observed the next morning. […] This assay was repeated with various Nrt genes.
# functional transformants = assay: Chlorate assay, functional transformants with pGAP promoter; format: cell-based, Pichia pastoris; conditions: as low as
# Procedure: A particularly effective way to screen for functional transformants is the use of a chlorate assay. It is known that Pichia pastoris cells with co-expressed Arabidopsis nitrate reductase and a yeast nitrate transporter driven under methanol-inducible AOX promoter are sensitive to 150 mM chlorate on solid medium. See, Unkles, et al., (2004) J. Biol. Chem., 279:28182-86. However, when a constitutive promoter rather than the commonly-used pAOX is used, the sensitivity of the functional transformants to chlorate increases substantially, and therefore the chlorate assay is much more sensitive. For example, when the preferred pGAP promoter is used, functional transformants are sensitive to chlorate concentrations much below 150 mM, such as by concentrations of as low as about 0.5 mM. Of course, the sensitivity level will vary depending on the rate of uptake of the particular Nrt integrated into the Pichia pastoris.
# [4] = tested on: Pichia pastoris cells with co-expressed Arabidopsis nitrate reductase and a yeast nitrate transporter; conditions: 150 mM chlorate on solid medium; methanol-inducible AOX promoter; cited from earlier work
# [5] = tested on: Pichia pastoris cell expressing the indicated nitrate transporter gene; assay: In vivo nitrate uptake assay (nitrite in medium by Griess reagent, Michaelis-Menten fit); format: cell-based; conditions: transporter co-expressed with YNR1 in Pichia pastoris; 20 mM MOPS pH 6.5, 1% glucose; nitrate 0-30 mM
# Source text: Pichia pastoris is a non-nitrate assimilating yeast. Because of this, any nitrate taken in via the Nrt is converted to nitrite by the co-expressed Nr and diffused or transported to the medium. This property permits the transformed Pichia pastoris to be used as an in vivo nitrate uptake assay, as the amount of nitrate taken into the cells is directly proportional to the nitrite later present in the growth medium. Nitrite may be quantitatively detected using Griess reagent or any other method known in the art. By way of the assay, various kinetic parameters of an Nrt may be quantified, such as Km and Vmax.
# The assay is generally performed by incubating transformed Pichia pastoris on a medium containing nitrate for a set amount of time and assessing the amount of nitrite diffused to the medium after that set amount of time. The medium is preferably buffered. Most preferably, the medium has about 20 mM MOPS, pH 6.5, buffer and about 1% glucose, as this buffered medium allows the detection of linear uptake for up to several hours. The table below provides kinetic data for several Nrt proteins ascertained using the in vivo uptake assay herein described:
# Pichia pastoris transformants were prepared in accordance with example 1 above and grown in YPD medium at 30° C. for 1 day. Cell pellets were washed twice with water then resuspended with a proper amount of uptake medium including nitrate. 24 different nitrate concentrations were tested, ranging from 0-30 mM. Optimal results were obtained with a buffered medium such as 20 mM MOPS, pH 6.5, 1% glucose, and the varying concentrations of nitrate. The aliquots were transferred into a 96-well plate; supernatants were mixed with Greiss reagent and monitored at 545 nm using a plate reader produced by Molecular Devices.
# The raw data were fitted into proper kinetic equations, such as the Michaelis-Menton equation, using a program such as KaleidaGraph, available from Synergy Software, Reading Pa., USA. This in vivo uptake assay permits the kinetics of various nitrate transporters to be ascertained, such as those listed in Table 1 above.
Molecule,NT activity [1],Km [5] [µM],"Vmax, μM of nitrate taken up in one minute by 50 μl Pichia pastoris cell [5] [μM/m/50 μl cell]",other results
"HvNrt2.1: barley carrier-type protein Nrt2 of two-component HATS, SEQ ID NO: 5",did not have NT activity,,,
[O-][Cl+2]([O-])O [chlorate],,,,growth of transformants in chlorate [2]: inhibited; sensitivity of transformants to chlorate [3]: less sensitive; chlorate concentration to which functional transformants are sensitive (functional transformants): about 0.5 mM; sensitivity to chlorate [4]: sensitive
B1,did not have NT activity,,,
B2,,610,4.0,
B3,,7400,14.4,
B4,,360,8.0,

# From US20120100556A1, “Functional Expression of Higher Plant Nitrate Transporters in Pichia Pastoris” (priority 2007, published 2012)
